Measurements published in US20170008955A1 (CNJ, published 2017).
Where a chain is given by its changes, count along the chain named. Values belong to the binder of their own block, whether it stands above or below them.

Columns and labels:
Aβ42 oligomers [1] = target: T1, Aβ42 oligomers (UniProt P05067 672-713); test: Biacore (SPR), Aβ oligomer preparation AβO1' (HQ AβO1'); upper end of the range
T1 construct: domain: Aβ42; immobilized preparation containing monomers, low and high molecular weight oligomers; also called Amyloid beta oligomers; Aβ oligomers
T1 sequence (P05067 672-713 limits assumed): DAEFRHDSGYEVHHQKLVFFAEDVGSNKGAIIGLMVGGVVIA
Procedure: (§1) Using a Biacore™ 3000, Aβ42 oligomers were immobilized (containing monomers, low and high molecular weight oligomers) and BSA (reference surface) on 4 separate flow cells of a biosensorchip. Murine 5E3 or humanized 5E3 IgG1, IgG2, and IgG4 were then diluted, sequentially injected over the different immobilized peptides and antibody binding monitored in real time. Binding data was collected by sequentially injecting buffer blanks, 1/10 dilutions of m5E3 or 1 uM dilutions of hu5E3 control over separate flow cells immobilized with BSA or Aβ42 oligomer on another biosensor chip at a flow rate of 10 μl/minute. Association was allowed for 200 seconds, followed by dissociation for 500 seconds and binding responses collected 10 seconds before the end of the […]. All binding responses were double-referenced by subtracting buffer blanks and BSA reference surface binding.
(§2) Results: As shown in FIG. 9A and FIG. 9B, the humanized 5E3 isotypes bound to the Aβ42 oligomer preparation. Affinity constants were determined for hu5E3 IgG1 Aβ42 oligomer preparations.

Aβ42 oligomers [2] = target: T1, Aβ42 oligomers; test: Biacore (SPR), Aβ oligomer preparation AβO1' (HQ AβO1'); lower end of the range
Procedure: as §1, §2

Ovalbumin = target: T2, Ovalbumin (UniProt P01012 2-386); test: Western blot of BSA, BSA-cSNK and ovalbumin probed with m5E3
T2 sequence (looked up): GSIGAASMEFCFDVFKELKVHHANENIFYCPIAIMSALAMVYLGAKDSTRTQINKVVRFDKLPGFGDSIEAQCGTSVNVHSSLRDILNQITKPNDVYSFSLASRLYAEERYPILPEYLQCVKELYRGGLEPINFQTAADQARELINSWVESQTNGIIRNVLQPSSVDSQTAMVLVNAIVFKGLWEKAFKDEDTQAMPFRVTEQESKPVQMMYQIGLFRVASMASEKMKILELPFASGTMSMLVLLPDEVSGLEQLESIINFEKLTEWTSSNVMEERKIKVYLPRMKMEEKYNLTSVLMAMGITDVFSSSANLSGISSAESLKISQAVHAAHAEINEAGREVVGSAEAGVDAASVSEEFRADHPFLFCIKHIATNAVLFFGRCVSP
Procedure: A 4-12% gradient SDS-PAGE gel was run with cSNK-BSA. The gel was then transferred to a nitrocellulose membrane. The next day the mAbs (1° Ab) were diluted to 2 μg/ml to 5 μg/ml depending on the antibody, and used to probe the membrane at room temperature (RT). The membranes were then probed with anti-mouse IgG-HRP (2° Ab).

cSNK:BSA conjugate [3] = target: T3, cSNK:BSA conjugate (bovine, head-to-tail cyclized; conjugated to BSA carrier); test: BLI 2:1 fit, site 1 (KD1); 12.5 nM row
T3 construct: also called BSA-cSNK
T3 sequence (P02769 25-607 limits assumed): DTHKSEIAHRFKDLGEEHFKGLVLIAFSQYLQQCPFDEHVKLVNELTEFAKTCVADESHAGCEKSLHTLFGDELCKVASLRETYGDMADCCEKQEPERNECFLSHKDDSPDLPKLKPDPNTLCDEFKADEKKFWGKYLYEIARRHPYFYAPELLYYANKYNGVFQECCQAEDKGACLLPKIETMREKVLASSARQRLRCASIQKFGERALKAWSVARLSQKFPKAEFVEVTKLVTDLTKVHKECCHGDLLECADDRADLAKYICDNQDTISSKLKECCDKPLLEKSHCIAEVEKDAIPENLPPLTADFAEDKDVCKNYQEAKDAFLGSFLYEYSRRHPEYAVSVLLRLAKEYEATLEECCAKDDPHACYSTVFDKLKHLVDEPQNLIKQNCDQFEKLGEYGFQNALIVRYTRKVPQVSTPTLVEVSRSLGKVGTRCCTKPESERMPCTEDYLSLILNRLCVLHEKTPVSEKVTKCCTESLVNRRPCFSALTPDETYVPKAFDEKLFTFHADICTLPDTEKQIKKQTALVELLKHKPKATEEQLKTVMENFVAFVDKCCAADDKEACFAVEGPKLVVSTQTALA
Procedure: (§3) Biolayer interferometry (Octet […], ForteBio) was used to qualitatively/quantitatively assess the interactions between humanized versions of 5E3 and cSNK:BSA conjugate. […] MAbs were loaded onto sensors and then washed in PBST. Each sensor was associated with one of several cSNK:BSA standards (100 nM to 0 nM) and then washed in PBST. Data was processed statistically using ForteBio Data Analysis software to determine the strength of antigen-antibody binding (KD). For each mAb analyzed, a 2:1 model provided the “best fit”.

cSNK:BSA conjugate [4] = target: T3, cSNK:BSA conjugate; test: BLI 2:1 fit, site 1 (KD1); 25 nM row
Procedure: as §3

cSNK:BSA conjugate [5] = target: T3, cSNK:BSA conjugate; test: BLI 2:1 fit, site 1 (KD1); 3.13 nM row
Procedure: as §3

- Kd (Aβ42 oligomers [1]): ≤ 51700 nM
- Kd (Aβ42 oligomers [2]): ≥ 34000 nM
B1: hu5E3-IgG1 (antibody, V domains shown)
VH: QVQLQQSGPEVKKPGASVKISCKASGYIFTSYYIQWVIHAPGQGLEWIGWIYPGNVNTKYNEKFKGKATLTADKSSSTAYMELSSLTSEDTAVYFCARMDYEAHYWGQGTTVTVSS
VL: DIQMTQSPSSLSASVGDRVTITCRASQEISGYLTWLQQKPEGAIKRLIYAASTLDSGVPKRFSGSRSGSDYSLTISSLQPEDFATYNCLQYANYPRTFGGGTKLEIK
notes: human IgG1/kappa; also called humanized 5E3 IgG1; IHA variant

- binding result (Ovalbumin): no binding
B2: murine monoclonal antibody 5E3 (antibody, V domains shown)
VH: B1 VH with V11L, K12V, K19R, A40R, E82Q, S85R, T91S, V112L
VL: B1 VL with V15L, D17E, T20S, I21L, E41D, A43T, Q79E, P80S, T85D
notes: mouse antibody of the 5E3 hybridoma; also called murine 5E3; m5E3

- Kd (cSNK:BSA conjugate [3]): 0.557 nM
- Kd (cSNK:BSA conjugate [4]): 0.557 nM
- Kd (cSNK:BSA conjugate [5]): 0.557 nM
B3: rehu5E3-IgG4 (antibody, V domains shown)
VH: B1 VH with K12V, T87R, T91S, T111L
VL: B1 VL with V15L, I21L, G42K, S72T, T85D
notes: human IgG4/kappa; also called IgG4 rehu version
